Data taken from US7592168B2, “Cephalosporin C acylase mutant and method for preparing 7-ACA using same” (Sandoz AG, priority 2003, dated 2009).
Positions count from the first letter of the chain named.

Assays:
[1] = Productivity of CPC acylase, pBC KS(+) plasmids in E. coli MC1061; settings: E. coli MC1061, LB, 25° C., 48 hr, crude enzyme
Experimental: (§1) To compare the productivity of CPC acylase by pBCPC plasmid derived E. coli transformant with that by pBSEM plasmid derived E. coli transformant, a CPC acylase crude enzyme solution obtained from each E. coli transformant was prepared as follows. Each E. coli transformant was inoculated into 3 ml of a LB medium (1% Bacto-Tryptone, 0.5% Yeast Extract, 0.5% NaCl) containing 25 μg/ml of chloramphenicol and cultured at 30° C., 200 rpm for 16 hr with vigorous shaking. 50 μl of the culture solution was transformed to 50 ml of a new LB medium containing […] of chloramphenicol and further cultured at 25° C., 200 rpm for 48 hr with vigorous shaking. The culture solution was subjected to centrifugation at 4° C., 8,000 rpm for 10 min to separate a precipitate and the precipitate washed twice with 0.1 M Tris-HCl buffer solution (pH 8.0). This precipitate was suspended in 5 ml of the same buffer solution and subjected to ultra-sonication at 4° C. for 10 min. […]
The enzyme activity of CPC acylase mutant to CPC was measured according to the method described by Park et al. with minor modifications as follows (Park, et al., Kor. J. Appl. Microbiol. Biotechnol. 23: 559-564, 1995). […] After the reaction, the absorbance of reaction mixture was measured at 415 nm and quantified by comparing with a calibration curve of standard material. […] Meanwhile, the specific activity of CPC acylase mutant for CPC was determined by measuring the amount of protein remaining in the enzyme solution according to the method described by Bradford (Bradford, M., Anal. Biochem. 72: 248-254, 1976) and representing it as an active unit corresponding to 1 mg of protein. The reactivity of CPC acylase mutant to CPC was determined by the following steps of adding the same amount of protein to a reaction mixture, performing an enzyme reaction for a fixed time, measuring the amount of 7-ACA produced in the reaction mixture, and representing it as a relative value. […]

[2] = Specific activity of CPC acylase to CPC (PDAB colorimetric assay); type: biochemical; settings: purified enzyme
Experimental: as §1, with “Each” for “To compare the productivity of CPC acylase by pBCPC plasmid derived E. coli transformant with that by pBSEM plasmid derived E. coli transformant, a CPC acylase crude enzyme solution obtained from each E. coli transformant was prepared as follows. Each”
The enzyme activity of CPC acylase mutant to CPC was measured according to the method described by Park et al. with minor modifications as follows (Park, et al., Kor. J. Appl. Microbiol. Biotechnol. 23: 559-564, 1995). A substrate solution was prepared by dissolving CPC (purity 74.2%; CJ Corp., Korea) in 0.1 M Tris-HCl buffer solution (pH 8.0) at a concentration of 20 mg/ml and adjusting pH to 8 with 1 N NaOH. […] After the reaction, the mixture (200 μl) of 50 mM NaOH and 20% glacial acetic acid (1:2) was added thereto to stop the reaction. 200 μl of the supernatant recovered from the reaction mixture by centrifugation was mixed with 40 μl of 0.5% (w/v) PDAB (p-dimethylaminobenzaldehyde; Sigma, USA) dissolved in a methanol and the reaction mixture was incubated at 37° C. for 10 min. After the reaction, the absorbance of reaction mixture was measured at 415 nm and quantified by comparing with a calibration curve of standard material. At this time, 1 unit has been defined as the amount of enzyme capable to produce 1 μmole of 7-ACA from CPC per minute. Meanwhile, the specific activity of CPC acylase mutant for CPC was determined by measuring the amount of protein remaining in the enzyme solution according to the method described by Bradford (Bradford, M., Anal. Biochem. 72: 248-254, 1976) and representing it as an active unit corresponding to 1 mg of protein. The reactivity of CPC acylase mutant to CPC was determined by the following steps of adding the same amount of protein to a reaction mixture, performing an enzyme reaction for a fixed time, measuring the amount of 7-ACA produced in the reaction mixture, and representing it as a relative value. The end-product inhibition by 7-ACA was determined by adding a protein corresponding to the same active unit to a reaction mixture, performing an enzyme reaction for a fixed time; measuring the amount of 7-ACA produced in the reaction mixture, and representing it as a relative value.

B1: Wild-type: Pseudomonas sp. SE83 derived wild-type CPC acylase (AcyII), α-subunit SEQ ID NO: 4 and β-subunit SEQ ID NO: 5, from pBCPC (protein)
alpha: TMAAKTDREALQAALPPLSGSLSIPGLSAPVRVQRDGWGIPHIKASGEADAYRALGFVHAQDRLFQMELTRRKALGRAAEWLGAEAAEADILVRRLGMEKVCRRDFEALGAEAKDMLRAYVAGVNAFLASGAPLPIEYGLLGAEPEPWEPWHSIAVMRRLGLLMGSVWFKLWRMLALPVVGAANALKLRYDDGGQDLLCIPPGVEAERLEADLAALRPAVDALLKAMGG
beta: SNNWAVAPGRTATGRPILAGDPHRVFEIPGMYAQHHLACDRFDMIGLTVPGVPGFPHFAHNGKVAYCVTHAFMDIHDLYLEQFAEDGRTARFGNEFEPVAWRRDRIAVRGGADREFDIVETRHGPVIAGDPLEGAALTLRSVQFAETDLSFDCLTRMPGASTVAQLYDATRGWGLIDHNLVAGDVAGSIGHLVRARVPSRPRENGWLPVPGWSGEHEWRGWIPHEAMPRVIDPPGGLIVTANNRVVADDHPDYLCTDCHPPYRAERIMERLVASPAFAVDDAAAIHADTLSPHVGLLRARLEALGIQGSLPAEELRQTLIAWDGRMDAGSQAASAYNAFRRALTRLVTARSGLEQAIAHPFAAVPPGVSPQGQVWWAVPTLLRNDDAGMLKGWSWDEALSEALSVATQNLTGRGWGEEHRPRFTHPLSAQFPAWAALLNPVSRPIGGDGDTVLANGLVPSAGPEATYGALSRYVFDVGNWDNSRWVVFHGASGHPASPHYADQNAPWSDCAMVPMLYSWDRIAAEAVTSQELVPA
modifications: Pseudomonas sp. SE83
- The productivity of CPC acylase (unit/l) [1]: about 97 unit/l
- The productivity of CPC acylase (unit/l) ([1]; listed as pBCPC (wild-type)): 97 unit/l
- specific activity to CPC as % of that to GL-7-ACA [2]: about 1.4%
- specific activity to CPC ([2]; pH 8.0): about 0.33 unit/mg protein
- Relative activity to CPC (fold) ([2]; relative to wild-type): 1.0 fold

B2: S12: sixfold CPC acylase mutant, α-subunit SEQ ID NO: 7 and β-subunit SEQ ID NO: 8 (protein)
alpha: B1 alpha with V121A, G139S
beta: B1 beta with F58N, I75T, I176V, S471C
modifications: alpha-subunit of mutatnt CPC acylase S12 protein; beta-subunit of mutatnt CPC acylase S12 protein
- The productivity of CPC acylase (unit/l) [1]: 712 unit/l
- specific activity to CPC, fold higher than that of the wild-type CPC acylase ([2]; pH 8.5): 8.5 fold
- specific activity to CPC ([2]; pH of the reaction mixture 8.5): 5.8 unit/mg protein
